Experimental data: patent publication US20150297742A1

Legend:
[1] = molecular target: epidermal growth factor receptor (EGFR) (human) (UniProt P00533); experiment: 125I-labelled conjugate on A431 cells, against unmodified matuzumab
[2] = molecular target: epidermal growth factor receptor (EGFR) (human) (UniProt P00533); experiment: 125I-labelled conjugate on EGFR-positive A431 cells, 37 C, gamma counting (membrane bound plus internalized)

Substance	fold of the binding percentage of the unmodified mAb [1] [fold]	% of the applied dose bound (% of applied dose per 10^6 cells) [2]
mAb-dMTS (matuzumab conjugated to dendritic tetravalent MTS) (antibody)	3	–
mAb-dR9 (matuzumab conjugated to dendritic tetravalent R9) (antibody)	4.2	92
mAb-dTAT (matuzumab conjugated to dendritic tetravalent TAT (47-60)) (antibody)	3	–

The next lines start with the values.

fold of the binding percentage of the unmodified mAb [1] [fold]	% of the applied dose bound (% of applied dose per 10^6 cells) [2]	Substance
3	68	mAb-dPenetratin (matuzumab conjugated to dendritic tetravalent penetratin) (antibody)
–	47	mAb-dSynB1 (matuzumab conjugated to dendritic tetravalent SynB1) (antibody)
